The values that follow are results of earlier work, collected in PMC11468230.

For orientation: Ki means a measure of affinity in units of concentration, obtained from inhibition or displacement. What is called Kd is a measure of binding affinity in units of concentration.

The target in series [1] is GLP-1 receptor (Homo sapiens) (UniProt P43220).
The next series has as its target IKCa1 (Homo sapiens) (UniProt O15554).
Series [2] has as its target KV channel (Kv1.3) (Homo sapiens) (UniProt P22001).
A further series concerns the target Kv1.3 (Homo sapiens) (UniProt P22001).

Sequence of UniProt P43220 (P43220 24-463): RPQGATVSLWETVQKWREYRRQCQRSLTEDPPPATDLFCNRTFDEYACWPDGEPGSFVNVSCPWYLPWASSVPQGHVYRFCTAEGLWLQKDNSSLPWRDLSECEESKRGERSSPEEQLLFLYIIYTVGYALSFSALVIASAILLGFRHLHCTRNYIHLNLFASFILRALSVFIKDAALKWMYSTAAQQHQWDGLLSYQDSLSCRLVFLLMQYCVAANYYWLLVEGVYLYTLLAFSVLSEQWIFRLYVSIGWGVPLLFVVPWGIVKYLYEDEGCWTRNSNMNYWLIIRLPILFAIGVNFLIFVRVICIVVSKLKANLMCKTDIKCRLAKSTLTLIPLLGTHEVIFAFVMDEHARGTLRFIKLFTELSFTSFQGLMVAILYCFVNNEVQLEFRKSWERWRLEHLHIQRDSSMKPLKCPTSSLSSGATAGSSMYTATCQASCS
Sequence of UniProt O15554 (O15554 whole entry): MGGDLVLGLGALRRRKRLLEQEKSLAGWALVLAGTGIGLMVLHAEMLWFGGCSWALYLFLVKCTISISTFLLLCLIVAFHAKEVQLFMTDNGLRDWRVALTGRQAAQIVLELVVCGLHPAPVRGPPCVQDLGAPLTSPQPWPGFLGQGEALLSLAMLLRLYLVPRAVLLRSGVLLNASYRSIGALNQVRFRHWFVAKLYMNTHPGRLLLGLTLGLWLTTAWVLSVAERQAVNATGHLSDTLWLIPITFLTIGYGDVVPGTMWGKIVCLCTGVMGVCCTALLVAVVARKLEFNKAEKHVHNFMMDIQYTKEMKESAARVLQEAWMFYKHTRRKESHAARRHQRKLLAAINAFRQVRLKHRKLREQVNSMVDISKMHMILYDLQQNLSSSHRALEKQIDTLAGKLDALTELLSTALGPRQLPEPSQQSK

For exendin-4 (from UniProt P26349), in series [1], the Ki was 0.46 nM.
As for Charybdotoxin (from UniProt P13487), the Kd was 5 nM in the series with IKCa1 (Homo sapiens) and 3 nM in series [2].
In the case of ShK (from UniProt P29187), the Kd in the series with Kv1.3 (Homo sapiens) is 0.011 nM.
